This note sets out measurements from the DeepSol protein solubility set.

The data set is described as follows: soluble on expression in E. coli; label from the status in PepcDB or PDB records.
For the sequence “MIQKQHESKLEVGQTFPVTIKRLGINGEGVGYFKRQVVFIPGALPGEEVVAETTKIQRGFAEAKVKKVRKASPHRVKAPCPVYEECGGCQLQHLDYKEQLNQKRDIVVQAFEKYMKNSMEEKIRPTLGMENPWHYRNKSQLQVGRKDEKVITGLYKQNSHQLIDIAHCMIQHKATNEATKVVRRILEKLNVSIYNEKKQKGLVRTIVTRTAVQTGEVQVTLITTKEELPNKEQFIAEVQKQMPAVKSIMQNVNWRKTSVIFGDKTFKLAGKEVIQETLGDLSFELSARAFFQLNPEQTVVLYNEAKKAAALTGNEKIVDAYCGVGTIGLWLANDAAEVRGMDVIPEAIADARKNAKRHGFTNTKYEAGKAEQWLPKWVKEGWRPDVIVVDPPRTGCDDKLLETILKVKPKQVVYVSCNPSSLARDVQALMKSYEVEYVQPVDMFPHTAHVENVVKLTLK”, the “soluble on expression in E. coli” value is listed as “not soluble”.
The same measure for “GPGSMRKKSVQETDEVPNERLPHILSSSDDPTEVNKALVVLLRRLRAGAGEPISLSPATLSQLLRILVGRTDDAWLEVRKKIAFVFSELLSKDNADVLADALLYGRLHTTTSSEARASRIDFGGVDENSAPDPFTSLKKMKEILGKLAEAHGTVERCVPAADVFRTFLRLPALLEVIMSPEPLFDVEDNDGSAPAHHATKKRCFNDTCIGILCRSAQAYTTALCTETWRSLSTALCTNKALSAPLLLCYFNEFVGMFLGCLEGDNFVAKLHALELIDAILEDAAFLKARPKLAESPALLCALLPLTNSRSQHIRFLTFDAIKVFIAKGNKPAPIRYILYINRETLARYVEDYSPNEATIGKVLSAEKEKILRSLLSLEPLSHEEEVLLNASA”: “not soluble”.
The same measure for “MQHKLIAFIGGGNMAQAIILGLLKQGYPAEQIIVNDPNEEKRAFFANLDVATSENNVGSAIKAEVVLLAVKPQMMAEVCSPLSAVDFSDKLLISIAAGISTERLNALIPSVKSIVRVMPNTPALVGEGMAGLFAPKNTSENYRTFAQDLLGAVGRTVWVNDETQMHAVTAASGSSPAYFFLMLEAMQKALIKMNIDEKTARELVQQSMLGAAKMVTENPQIALSTLRENVTSKGGTTAAALAVFDAQHFNQTIEQAMQACLSRSQEMETLF”: “soluble”.
The same measure for “MSTMKDEIEKVPASQYKGQDFQPLAEKSAIAHAKKYREEYEKLGEQFFKDNFSLNVKATNVVGSGDGAEVYVHCDDHDIVFNASIPFDMESIHEEGSMRSNDNGDTMSMMVGTVLSGFEYRANKEKMDNLEKYLKDKEDKYHYTGFTDEAITKTQNIGYQNNYFYITTSSTKLRDYRKHFEPLIKESDDDFKKHMKQLKSKKDTYINTEITTTLFSTLDEYDEKIIRKNTLSMAKEMRKEPSIPHNFTFHLLFSNNKLKINDPNISNNQINEYRVFDHDGFKNLEHHHHHH”: “soluble”.
Take “GMAGAAHRLMEARMRRYDNKFARISDIDINQPESWRGRIFLTFDIDWAADFVLQDTIDLIEGAGVCATWFATHSTPLLENIRRNPLFELGVHPNFNPLLAGAHAEGVQEILDRTLELAPGCVSVRSHSLVQATSILNMFGERRLRYDCNILVPWDAGIVLQPWRHWTGDMVRVPYLWEDDVACLYDWEFDSTFDYWYQPDGINVLDFHPIHVYMNTESLRRYEDSREVHRNPVDLIRWRNTSAGSRTFLQSLLARNI”: the “soluble on expression in E. coli” value is “soluble”.
For the sequence “MGSDKIHHHHHHMNAVTIFVHGFNGNADSTDHLIHGAQKNGWAQKMLVVKIKNDGAMDFDGELDQQVANPMVQVLFENNRAPERRQVSWMHQLLIKLRQSFGVEQYNGVGHSLGSNVLVNLAIKFGKDSRLPALKKLVTIAGPFNGLHGFLSQDTVKDVMTKSWEPNKRTHHFKKLVRNRHLFPKGAEVLNVIGSVDGILNNDVYVAVDSARAVGYLLDGVAAKVSELMVIGPDGYHCELNRSQNVSREINQFLWDEKYIAQDFKLINSYRADKVYQLAPEELNWAN”, the “soluble on expression in E. coli” value was “not soluble”.
The value for “MSLAAEGKAIAKVNDLVIFVPYVVPGDVVDLQIKRKKNKYAEAEAVKFHELSPVRAVPFCQHYGVCGGCKWQVLPYSEQIRYKQKQVEDNLRRIGKIELPEISPILGSAKTEFYRNKLEFTFSNKRWLTNDEVRQDVKYDQMNAVGFHIPGAFDKVLAIEKCWLQDDISNRIRNAVRDYAYEHDYSFINLRTQEGMLRNLIIRTSSTGELMVIVICKITEDHEMELFKQLLQFIADSFPEITSLLYIINNKCNDTINDLDVHVFKGKDHMFEEMEGLRFKVGPKSFYQTNSEQAYNLYKIAREFAGLTGKELVYDLYTGTGTIANFVSRQARQVIGIEYVPEAIEDAKVNAEINEIKNALFYAGDMKDMLTQEFINQHGRPDVIITDPPRAGMHQDVVDVILFAEPKRIVYVSCNPATQARDLQLLDGKYKVKAVQPVDMFPHTHHVENVVLLELREGHHHHHH” was “soluble”; that for “MIKRYTCPNGVRIVLENNPTVRSVAIGVWIGTGSRHETPEINGISHFLEHMFFKGTSTKSAREIAESFDRIGGQVNAFTSKEYTCYYAKVLDEHANYALDVLADMFFHSTFDENELKKEKNVVYEEIKMYEDAPDDIVHDLLSKATYGNHSLGYPILGTEETLASFNGDSLRQYMHDYYTPDRVVISVAGNISDSFIKDVEKWFGSYEAKGKATGLEKPEFHTEKLTRKKETEQAHLCLGFKGLEVGHERIYDLIVLNNVLGGSMSSRLFQDVREDKGLAYSVYSYHSSYEDSGMLTIYGGTGANQLQQLSETIQETLATLKRDGITSKELENSKEQMKGSLMLSLESTNSKMSRNGKNELLLGKHKTLDEIINELNAVNLERVNGLARQLFTEDYALALISPSGNMPS” was “not soluble”.
The value for “MRGLLILLLSLICLATPVLAQPVAAEQPLPDIRQRGFVYCVSGILNTFNPQMASSGLTVDTLAAQLYDRLLDVDPYTYRLIPELAESWQVLDNGATYRFHLRKDVPFQTTDWFTPTRMMNADDVVFSFQRVFDSKHPYHKVNGGEYPYFDSLQFASAVKSVKKLDDYTVEFKLKAPDASFLWHLATHYAPVLSSEYADVLTQKGKEEQIDREPVGTGPFLLDEYRSGQYIRLFRNSHYWKGVPRMPQVVIDLGVGGTGRLSKLLTGECDVLAYPAASQLSILRDDPPRLRLTLRPGMNVAYLAFNTRKPPLSDQRVRQAIALSINNQRLMQSIYYGTAETAASILPRASWAYDNQAQVTEYNPEKAKEILKDLGITQLQLNLWVPTASQSYNPSPLKTAELIQADLAQVGISVTIVPVEGRFQEARLMEMNHDLTLSGWSTDSNDPDSFFRPLLSCAAIRSQTNYAHWCDPAFDELLQKALRSQQLSERIEYYQQAQRILEQQLPLLPLASSLRLQAYRYDIKGLVLSPFGNSSFAGVYRESDEGKTP” was “not soluble”; that for “MPPSPLDDRVVVALSRPVRPQDLNLCLDSSYLGSANPGSNSHPPVIATTVVSLKAANLTYMPSSSGSARSLNCGCSSASCCTVATYDKDNQAQTQAIAAGTTTTAIGTSTTCPANQMVNNNENTGSLSPSSGVGSPVSGTPKQLASIKIIYPNDLAKKMTKCSKSHLPSQGPVIIDCRPFMEYNKSHIQGAVHINCADKISRRRLQQGKITVLDLISCREGKDSFKRIFSKEIIVYDENTNEPSRVMPSQPLHIVLESLKREGKEPLVLKGGLSSFKQNHENLCDNSLQLQECREVGGGASAASSLLPQPIPTTPDIENAELTPILPFLFLGNEQDAQDLDTMQRLNIGYVINVTTHLPLYHYEKGLFNYKRLPATDSNKQNLRQYFEEAFEFIEEAHQCGKGLLIHCQAGVSRSATIVIAYLMKHTRMTMTDAYKFVKGKRPIISPNLNFMGQLLEFEEDLNNGVTPRILTPKLMGVETVV” was “soluble”; that for “FVNKDQIAKDVKQFYDQALQQAVVDDDANNAKAVVKTFHETLDCCGSSTLTALTTSVLKNNLCPSGSNIISNLFKEDCHQKIDDLFSGKH” was “soluble”.
The same measure for “MGSDKIHHHHHHMSLKMKLIYVVESSVPYGANKCLIEIIDRLDKDKHEVMVVGADEGALSSWLRERNVSYVSLNHRLSIYPVLNSRKDYLLWLPRLFRRVALNVIAMVKFFKICKRFKPDIVHTNVGPCSLGYFVATYLGIKHVWHVREYQDLDFGMSFFPNRKAFLKRLKRSDAVICITNSIAAHFHLTDNENLAVINDGVISDEKEIDIIQKENYFLFAGRLEAAKGIEEAIESFFEFCETDSSGISFYVAGDGNFNYLKKLKEKVSKSNFSNRVRFLGFRDDIFALMRMAKALVVASRCEGFGLITAEAMYQGTLVIGRDTGGTSEILKDSKGIHYGFLFNSIDELTKLMHEVVDLSPDEYTKMARSAQRRTLDKYTINRNFREISDVYNTLM”: “not soluble”; for “MILSDKDIIDYVTSKRIIIKPFNKDFVGPCSYDVTLGDEFIIYDDEVYDLSKELNYKRIKIKNSILVCPLNYNLTEEKINYFKEKYNVDYVVEGGVLGTTNEYIELPNDISAQYQGRSSLGRVFLTSHQTAGWIDAGFKGKITLQIVAFDKPVILYKNQRIGQLIFSKLLSPADVGYSERKTSKYAYQKSVMPSLIHLDNHKKD”: “soluble”.
“MKGKSILSEGKQIQLATELVRLGARLQVLEASTTLSRERLVKLYKEVKGASPPKGMLPYSEDWFTGWQPNMHSSLFINIYNYITRYTKVRDIDAIIKSYQLYLEHIEANRLQRILSFTRAWTLVRFVESKVLSVTSCVKCTGNFLVHSLDIQSNHVCGLCHVPSRAGKTKRVAQEARAAQEAGAGELCVI”: the “soluble on expression in E. coli” value was “not soluble”.
The value for “MGSDKIHHHHHHMADNFLSQDEVDALLKGVSGEVDDAPQEAVDTGGPRPYNLATQERIVRGRMPTLEIINERFARLLRIGLYNFLRRGVEISVGPVRVSKYSEFIRNLVVPTNLNLVQFKPLRGTALMIFNPDLVFLMVDNLFGGDGRFHTRVEGRDFTQTEHRIIQRILNIVFEAYGKSWEPVYPIEFEFIRSEMNTQFANIATPNEVVVAVTFAIELGQISGEMHFCMPYSMIEPIKDLLTSSLQAENLEVDKRWIRLMRQQIQLAEVEIVADLGTAEVSLRDIVNLKVGDVIPLDIPPTIEAKVDGVPVMECAYGKFNGQYTLRVEKLLSTSAVEPKTGEQHV” was “not soluble”; that for “MGSDKIHHHHHHMKRNTAQLKEKLIQTGVEEIKKNGLDQLSLRTIAKNCGVTHGTPYRHFKSKEDYLRVVLTRLSTFLNQEIAQGIDQKVSARDQLAQMGFNLITFTKRYPYFFEALFIKFPFKYMKITQETIVLDSDLPGFDKFKRIVFDLRKEESFTNSEAETLFHFWSFISGLAVLANSPIGRDLDNQAIHTTINHMLDIYIKGEQT” was “not soluble”; that for “PSTVSHFMAFNPKNDVLNQRTIREAISKSIDAKDIAGKSVNGLFQKNVQFVTKNNQQPHDYDMKAAERLLKSEGYHKNDDGIFEKNGKPLSFNLVIQTAEFPNWKDKAEKVQRQLKQAGIKLNVKTLDSQSYYDTLWTKKDYDLIFYRTYSDALMPYNFISSVFKNNDGQPGVLADDETLTKQLDDFPSTVSKEDQQCSFDDIFKHFNQQYYGVPIAYPNETFVVSDKV” was “soluble”.
On to “MAHHHHHHMSGNDLLPLWIGTPQRGVTHDDTADPYTSKVGGQAVYFRLGASTAEQQSAGALSKYFQCPQCKSTAQVSLLCQVYAPLEVYDRVLYILTCAACTRRPRAAASLQGSVPAPALTTGTSKKSGLAAAARSHTSFCFALRSQNFSREHFAELQKQLRAEAQRATEDEKEKAENDAPLFGGGDDDWGDDADDWGTEEGPVKEAKPSPAEPLDDAGDKNGALEKTPNELPEFPLASRGMTVPLKGTLYTSGLPLDLYEEPPPKQTKELSIEEQLAAAKSMYGSSAALDTSGFEEDDEAPEERCVREYMEHMERTPSQCVRWCLGGTPLRTSTTPIGVNGSSLPPPCPACGAVRQFEMQLTAPVVFYLTKDIGEAKNTALHFSNVLVYTCSSNCYNTNSNLPYLPEYVVVEDEL”, for which the “soluble on expression in E. coli” value is “not soluble”.
